The values that follow come from the supplement of paper PMC5998384.

In data set [1] the test system is HeLa Kyoto. In words: melting temperature (median over replicates), in situ; higher = more thermally stable.
Data set [2] has as its system HeLa Kyoto. As to the kind of experiment: solubility in G1/S (NP-40 vs SDS abundance) (log2 ratio); higher = more soluble. The following applies: cell cycle stage: G1/S.
Data set [3] has as its system HeLa Kyoto. In words: thermal stability score vs G1/S (z-score of summed log2 fold changes over temperatures); higher = more thermally stable than in G1/S.
The subject of data set [4] is HeLa Kyoto. As to the kind of experiment: solubility change mitosis vs G1/S (difference of NP-40 vs SDS log2 ratios) (log2 ratio difference); higher = more soluble in mitosis.
Setting [5] is: cell cycle stage: early G1 (4.5 h after nocodazole release).
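For melting temperature (median over replicates), in situ in this document: HeLa Kyoto cells synchronized by double thymidine or nocodazole block, proteins quantified by TMT10plex mass spectrometry, three independent biological replicates.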
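For solubility change mitosis vs G1/S (difference of NP-40 vs SDS log2 ratios) in this document: synchronized HeLa Kyoto cells (double thymidine block for G1/S, nocodazole release for mitosis), protein amounts in NP-40 versus SDS lysates quantified by mass spectrometry, three biological replicates.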
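For solubility in G1/S (NP-40 vs SDS abundance) in this document: HeLa Kyoto cells arrested at G1/S by double thymidine block, proteins quantified by TMT10plex mass spectrometry in mild NP-40 versus SDS extracts, three biological replicates.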
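For thermal stability score vs G1/S (z-score of summed log2 fold changes over temperatures) in this document: synchronized HeLa Kyoto cells, proteins quantified by TMT10plex mass spectrometry, three biological replicates, mitosis taken 0.5 h after nocodazole release, G1/S directly after double thymidine block.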

Take “MPYEIKKVFASLPQVERGVSKIIGGDPKGNNFLYTNGKCVILRNIDNPALADIYTEHAHQVVVAKYAPSGFYIASGDVSGKLRIWDTTQKEHLLKYEYQPFAGKIKDIAWTEDSKRIAVVGEGREKFGAVFLWDSGSSVGEITGHNKVINSVDIKQSRPYRLATGSDDNCAAFFEGPPFKFKFTIGDHSRFVNCVRFSPDGNRFATASADGQIYIYDGKTGEKVCALGGSKAHDGGIYAISWSPDSTHLLSASGDKTSKIWDVSVNSVVSTFPMGSTVLDQQLGCLWQKDHLLSVSLSGYINYLDRNNPSKPLHVIKGHSKSIQCLTVHKNGGKSYIYSGSHDGHINYWDSETGENDSFAGKGHTNQVSRMTVDESGQLISCSMDDTVRYTSLMLRDYSGQGVVKLDVQPKCVAVGPGGYAVVVCIGQIVLLKDQRKCFSIDNPGYEPEVVAVHPGGDTVAIGGVDGNVRLYSILGTTLKDEGKLLEAKGPVTDVAYSHDGAFLAVCDASKVVTVFSVADGYSENNVFYGHHAKIVCLAWSPDNEHFASGGMDMMVYVWTLSDPETRVKIQDAHRLHHVSSLAWLDEHTLVTTSHDASVKEWTITY [WDR1]”: the melting temperature was determined as 53.7 °C in the data set on HeLa Kyoto [1] (cell cycle stage: G1/S) and 52.3 °C in the data set on HeLa Kyoto [1] (cell cycle stage: mitosis). The “solubility in G1/S (log2)” value in the data set with HeLa Kyoto [2] is -0.153. The thermal stability score was -0.713 in the data set with HeLa Kyoto [3] (setting [5]) and -2.84 in the data set on HeLa Kyoto [3] (cell cycle stage: mitosis). Besides, the “solubility change mitosis (log2)” value in the data set on HeLa Kyoto [4] was -0.128.
On to “MPYLGSEDVVKELKKALCNPHIQADRLRYRNVIQRVIRYMTQGLDMSGVFMEMVKASATVDIVQKKLVYLYMCTYAPLKPDLALLAINTLCKDCSDPNPMVRGLALRSMCSLRMPGVQEYIQQPILNGLRDKASYVRRVAVLGCAKMHNLHGDSEVDGALVNELYSLLRDQDPIVVVNCLRSLEEILKQEGGVVINKPIAHHLLNRMSKLDQWGQAEVLNFLLRYQPRSEEELFDILNLLDSFLKSSSPGVVMGATKLFLILAKMFPHVQTDVLVRVKGPLLAACSSESRELCFVALCHVRQILHSLPGHFSSHYKKFFCSYSEPHYIKLQKVEVLCELVNDENVQQVLEELRGYCTDVSADFAQAAIFAIGGIARTYTDQCVQILTELLGLRQEHITTVVVQTFRDLVWLCPQCTEAVCQALPGCEENIQDSEGKQALIWLLGVHGERIPNAPYVLEDFVENVKSETFPAVKMELLTALLRLFLSRPAECQDMLGRLLYYCIEEEKDMAVRDRGLFYYRLLLVGIDEVKRILCSPKSDPTLGLLEDPAERPVNSWASDFNTLVPVYGKAHWATISKCQGAERCDPELPKTSSFAASGPLIPEENKERVQELPDSGALMLVPNRQLTADYFEKTWLSLKVAHQQVLPWRGEFHPDTLQMALQVVNIQTIAMSRAGSRPWKAYLSAQDDTGCLFLTELLLEPGNSEMQISVKQNEARTETLNSFISVLETVIGTIEEIKS [AP4B1]”, for which the melting temperature with HeLa Kyoto [1] (cell cycle stage: G1/S) was 49.3 °C; in the data set with HeLa Kyoto [1] (cell cycle stage: mitosis), 49.7 °C. Moreover, the “solubility in G1/S (log2)” value in the data set with HeLa Kyoto [2] is -0.123. For the same sequence, the figures for the thermal stability score with HeLa Kyoto [3] (setting [5]) and in the data set with HeLa Kyoto [3] (cell cycle stage: mitosis) were -0.012 and 0.298, respectively. The “solubility change mitosis (log2)” value in the data set on HeLa Kyoto [4] was -0.136.
Take “MQDDSIEASTSISQLLRESYLAETRHRGNNERSRAEPSSNPCHFGSPSGAAEGGGGQDDLPDLSAFLSQEELDESVNLARLAINYDPLEKADETQARKRLSPDQMKHSPNLSFEPNFCQDNPRSPTSSKESPQEAKRPQYCSETQSKKVFLNKAADFIEELSSLFKSHSSKRIRPRACKNHKSKLESQNKVMQENSSSFSDLSERRERSSVPIPIPADTRDNEVNHALEQQEAKRREAEQAASEAAGGDTTPGSSPSSLYYEEPLGQPPRFTQKLRSREVPEGTRVQLDCIVVGIPPPQVRWYCEGKELENSPDIHIVQAGNLHSLTIAEAFEEDTGRYSCFASNIYGTDSTSAEIYIEGVSSSDSEGDPNKEEMNRIQKPNEVSSPPTTSAVIPPAVPQAQHLVAQPRVATIQQCQSPTNYLQGLDGKPIIAAPVFTKMLQNLSASEGQLVVFECRVKGAPSPKVEWYREGTLIEDSPDFRILQKKPRSMAEPEEICTLVIAEVFAEDSGCFTCTASNKYGTVSSIAQLHVRGNEDLSNNGSLHSANSTTNLAAIEPQPSPPHSEPPSVEQPPKPKLEGVLVNHNEPRSSSRIGLRVHFNLPEDDKGSEASSEAGVVTTRQTRPDSFQERFNGQATKTPEPSSPVKEPPPVLAKPKLDSTQLQQLHNQVLLEQHQLQNPPPSSPKEFPFSMTVLNSNAPPAVTTSSKQVKAPSSQTFSLARPKYFFPSTNTTAATVAPSSSPVFTLSSTPQTIQRTVSKESLLVSHPSVQTKSPGGLSIQNEPLPPGPTEPTPPPFTFSIPSGNQFQPRCVSPIPVSPTSRIQNPVAFLSSVLPSLPAIPPTNAMGLPRSAPSMPSQGLAKKNTKSPQPVNDDNIRETKNAVIRDLGKKITFSDVRPNQQEYKISSFEQRLMNEIEFRLERTPVDESDDEIQHDEIPTGKCIAPIFDKRLKHFRVTEGSPVTFTCKIVGIPVPKVYWFKDGKQISKRNEHCKMRREGDGTCSLHIESTTSDDDGNYTIMAANPQGRISCSGHLMVQSLPIRSRLTSAGQSHRGRSRVQERDKEPLQERFFRPHFLQAPGDMVAHEGRLCRLDCKVSGLPPPELTWLLNGQPVLPDASHKMLVRETGVHSLLIDPLTQRDAGTYKCIATNKTGQNSFSLELSVVAKEVKKAPVILEKLQNCGVPEGHPVRLECRVIGMPPPVFYWKKDNETIPCTRERISMHQDTTGYACLLIQPAKKSDAGWYTLSAKNEAGIVSCTARLDIYAQWHHQIPPPMSVRPSGSRYGSLTSKGLDIFSAFSSMESTMVYSCSSRSVVESDEL [MYPN]”: the melting temperature is 47.6 °C with HeLa Kyoto [1] (cell cycle stage: G1/S) and 48.9 °C with HeLa Kyoto [1] (cell cycle stage: mitosis). For the same sequence, the “solubility in G1/S (log2)” value in the data set on HeLa Kyoto [2] came to 0.0329. Also, the thermal stability score in the data set with HeLa Kyoto [3] (setting [5]) was -0.0918; with HeLa Kyoto [3] (cell cycle stage: mitosis) it was 3.44. The “solubility change mitosis (log2)” value in the data set with HeLa Kyoto [4] was -0.108.
With “MQGSSLWLSLTFRSARVLSRARFFEWQSPGLPNTAAMENGTGPYGEERPREVQETTVTEGAAKIAFPSANEVFYNPVQEFNRDLTCAVITEFARIQLGAKGIQIKVPGEKDTQKVVVDLSEQEEEKVELKESENLASGDQPRTAAVGEICEEGLHVLEGLAASGLRSIRFALEVPGLRSVVANDASTRAVDLIRRNVQLNDVAHLVQPSQADARMLMYQHQRVSERFDVIDLDPYGSPATFLDAAVQAVSEGGLLCVTCTDMAVLAGNSGETCYSKYGAMALKSRACHEMALRIVLHSLDLRANCYQRFVVPLLSISADFYVRVFVRVFTGQAKVKASASKQALVFQCVGCGAFHLQRLGKASGVPSGRAKFSAACGPPVTPECEHCGQRHQLGGPMWAEPIHDLDFVGRVLEAVSANPGRFHTSERIRGVLSVITEELPDVPLYYTLDQLSSTIHCNTPSLLQLRSALLHADFRVSLSHACKNAVKTDAPASALWDIMRCWEKECPVKRERLSETSPAFRILSVEPRLQANFTIREDANPSSRQRGLKRFQANPEANWGPRPRARPGGKAADEAMEERRRLLQNKRKEPPEDVAQRAARLKTFPCKRFKEGTCQRGDQCCYSHSPPTPRVSADAAPDCPETSNQTPPGPGAAAGPGID [TRMT1]”, the melting temperature came to 56.3 °C with HeLa Kyoto [1] (cell cycle stage: G1/S) and 56.7 °C with HeLa Kyoto [1] (cell cycle stage: mitosis). Further, the “solubility in G1/S (log2)” value in the data set on HeLa Kyoto [2] was -0.0405. The thermal stability score is -0.711 in the data set with HeLa Kyoto [3] (setting [5]) and -1.01 in the data set with HeLa Kyoto [3] (cell cycle stage: mitosis). Further, in the data set with HeLa Kyoto [4], the “solubility change mitosis (log2)” value was -0.0538.
